Article PMC2845276 (The EMBO Journal, 2010)

Assays:
[1] = biological target: talin1 F0 domain (murine) (UniProt P26039)
[2] = biological target: GST-talin head ΔF1 loop (mouse, UniProt P26039 1-433, lacking residues 133–165); test: pull-down
[3] = biological target: GST-talin head (mouse, UniProt P26039 1-433); test: pull-down

Chain of GMP.PNP-Rap1 (P62834 whole entry): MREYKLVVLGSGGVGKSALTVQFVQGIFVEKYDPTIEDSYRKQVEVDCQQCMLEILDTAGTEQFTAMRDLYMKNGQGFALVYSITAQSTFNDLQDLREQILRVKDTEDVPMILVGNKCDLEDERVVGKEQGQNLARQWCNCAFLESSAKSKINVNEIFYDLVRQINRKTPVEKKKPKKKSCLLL

Molecule | Kd [1] [nM] | Kd [2] [nM] | Kd [3] [nM]
GMP.PNP-Rap1 (from UniProt P62834 1-184) (natural protein) | 140000 | – | –
KLLMIIHDRREFAKFEKEKMNAKWDTGENPIYKSAVTTVVNPKYEGK (domain or fragment, UniProt P05556-1 752-798, looked up) [β1A-integrin cytoplasmic tail (recombinant model protein)] | – | 99 ± 20 | 124 ± 19
